Reference: US20170296628A1 (GRIFFON PHARMACEUTICALS, published 2017)
Non-standard residues stand in square brackets, D forms with d. No end group written: not given here. hArg = N=C(N)NCCCC[C@H](N)C(=O)O; Orn = NCCC[C@H](N)C(=O)O

T1: human GHRH receptor (human, UniProt Q02643 23-423)
T1 sequence (looked up): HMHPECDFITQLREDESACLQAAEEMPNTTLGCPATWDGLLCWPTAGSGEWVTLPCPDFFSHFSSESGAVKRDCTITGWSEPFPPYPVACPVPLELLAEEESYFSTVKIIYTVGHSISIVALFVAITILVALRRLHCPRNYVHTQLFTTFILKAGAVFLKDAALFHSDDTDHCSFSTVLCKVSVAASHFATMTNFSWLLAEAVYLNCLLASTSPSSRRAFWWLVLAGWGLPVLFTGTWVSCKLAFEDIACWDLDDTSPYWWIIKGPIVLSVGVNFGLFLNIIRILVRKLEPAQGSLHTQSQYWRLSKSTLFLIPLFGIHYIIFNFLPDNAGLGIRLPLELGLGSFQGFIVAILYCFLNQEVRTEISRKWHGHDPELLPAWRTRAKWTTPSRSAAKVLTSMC

B1: Analog 7 (C8) (peptide)
peptide: Y[dA]DAIFTC(PEG 2 kDa)SYR[Orn]VLAQLSAR[Orn]ALQDILSKN-NH2
B2: Analog 1 (C28) (peptide)
peptide: Y[dA]DAIFTASYR[Orn]VLAQLSAR[Orn]ALQDILC(PEG 2 kDa)KN-NH2
B3: Analog 6 (C9) (peptide)
peptide: Y[dA]DAIFTAC(PEG 2 kDa)YR[Orn]VLAQLSAR[Orn]ALQDILSKN-NH2
B4: Analog 8 (C26) (peptide)
peptide: Y[dA]DAIFTASYR[Orn]VLAQLSAR[Orn]ALQDC(PEG 2 kDa)LSKN-NH2
B5: Analog 5 (C15) (peptide)
peptide: Y[dA]DAIFTASYR[Orn]VLC(PEG 2 kDa)QLSAR[Orn]ALQDILSKN-NH2
B6: Human GHRH1-29 (peptide)
peptide: YADAIFTNSYRKVLGQLSARKLLQDIMSX
modifications: C-terminal amide
B7: Analog 4 (C19) (peptide)
peptide: Y[dA]DAIFTASYR[Orn]VLAQLSC(PEG 2 kDa)R[Orn]ALQDILSKN-NH2
B8: Analog 2 (C24) (peptide)
peptide: Y[dA]DAIFTASYR[Orn]VLAQLSAR[Orn]ALC(PEG 2 kDa)DILSKN-NH2
B9: Analog 3 (C22) (peptide)
peptide: Y[dA]DAIFTASYR[Orn]VLAQLSAR[Orn]C(PEG 2 kDa)LQDILSKN-NH2
B10: Analog 9 (C16) (peptide)
peptide: Y[dA]DAIFTASYR[Orn]VLAC(PEG 2 kDa)LSAR[Orn]ALQDILSKN-NH2
B11: Analog 11 (C9,31) (peptide)
peptide: Y[dA]DAIFTAC(PEG 2 kDa)YR[Orn]VLAQLSAR[Orn]ALQDILSRNC(PEG 2 kDa)-NH2
B12: Analog 13 (C9,24) (peptide)
peptide: Y[dA]DAIFTAC(PEG 2 kDa)YR[Orn]VLAQLSAR[Orn]ALC(PEG 2 kDa)DILSRN-NH2
B13: Analog 15 (C9) (peptide)
peptide: Y[dA]DAIFTACYR[Orn]VLAQLSAR[Orn]ALQDILS[hArg]-NH2
modifications: not fully specified (residue 9); printed as YaDAIFTAC(Peg-5K)YROVLAQLSAROALQDILS(Har)-NH2
B14: Analog 10 (C9) (peptide)
peptide: Y[dA]DAIFTAC(PEG 2 kDa)YR[Orn]VLAQLSAR[Orn]ALQDILS[hArg]-NH2
B15: Analog 16 (C9) (peptide)
peptide: Y[dA]DAIFTAC(PEG 40 kDa)YR[Orn]VLAQLSAR[Orn]ALQDILS[hArg]-NH2
B16: Analog 12 (C9,28) (peptide)
peptide: Y[dA]DAIFTAC(PEG 2 kDa)YR[Orn]VLAQLSAR[Orn]ALQDILC(PEG 2 kDa)RN-NH2
B17: Analog 14 (C9,22) (peptide)
peptide: Y[dA]DAIFTAC(PEG 2 kDa)YR[Orn]VLAQLSAR[Orn]C(PEG 2 kDa)LQDILSRN-NH2

These binders were tested against T1, human GHRH receptor (assay: cell-based or functional assay).
For B1, the “EC50 (nM), Hit Hunter cAMP agonist assay” value was 0.69 nM, the “Max Response (%)” value was 108% and the “Potency (%) (% EC50 compared to baseline)” value (“Potency (%)” below) was 52%. B2 was tested, and the “EC50 (nM), Hit Hunter cAMP agonist assay” value was 0.29 nM, the “Max Response (%)” value was 105% and the “Potency (%)” value was 125%. With B3 the “EC50 (nM), Hit Hunter cAMP agonist assay” value was 0.29 nM, the “Max Response (%)” value was 102% and the “Potency (%)” value was 123%. For B4, the “EC50 (nM), Hit Hunter cAMP agonist assay” value was 0.98 nM, the “Max Response (%)” value was 106% and the “Potency (%)” value was 37%. For B5, the “EC50 (nM), Hit Hunter cAMP agonist assay” value was 1.38 nM, the “Max Response (%)” value was 107% and the “Potency (%)” value was 26%. With B6 the “Max Response (%)” value was 104% and the “Potency (%)” value was 100%. In the case of B7, the “EC50 (nM), Hit Hunter cAMP agonist assay” value is reported as 1.32 nM, the “Max Response (%)” value is reported as 94.9% and the “Potency (%)” value is reported as 27%. For B8, the “EC50 (nM), Hit Hunter cAMP agonist assay” value was 0.28 nM, the “Max Response (%)” value was 108% and the “Potency (%)” value was 130%. With B9 the “EC50 (nM), Hit Hunter cAMP agonist assay” value was 0.25 nM, the “Max Response (%)” value was 100% and the “Potency (%)” value was 143%. With B10 the “EC50 (nM), Hit Hunter cAMP agonist assay” value was 0.92 nM, the “Max Response (%)” value was 107% and the “Potency (%)” value was 39%.

Target: T1, human GHRH receptor
Experiment: cell-based or functional assay
Remark: another data set of the same source
In the case of B11, the “EC50 (nM), Hit Hunter cAMP agonist assay” value is reported as 0.47 nM, the “Max. response (%)” value is reported as 97.2% and the “Potency (%)” value is reported as 314%. In the case of B12, the “EC50 (nM), Hit Hunter cAMP agonist assay” value is reported as 0.41 nM, the “Max. response (%)” value is reported as 103% and the “Potency (%)” value is reported as 361%. B13 was tested, and the “EC50 (nM), Hit Hunter cAMP agonist assay” value was 0.22 nM, the “Max. response (%)” value was 94.3% and the “Potency (%)” value was 669%. B14 was tested, and the “EC50 (nM), Hit Hunter cAMP agonist assay” value was 0.11 nM, the “Max. response (%)” value was 96.2% and the “Potency (%)” value was 1400%. B15 was tested, and the “EC50 (nM), Hit Hunter cAMP agonist assay” value was 0.74 nM, the “Max. response (%)” value was 93.7% and the “Potency (%)” value was 200%. In the case of B6, the “Max. response (%)” value is reported as 113% and the “Potency (%)” value is reported as 100%. In the case of B16, the “Max. response (%)” value is reported as 102% and the “Potency (%)” value is reported as 416%. With B17 the “EC50 (nM), Hit Hunter cAMP agonist assay” value was 0.73 nM, the “Max. response (%)” value was 97.2% and the “Potency (%)” value was 203%.
